# According to the supplement of paper PMC9170038:
# Tested on: MS2 coat protein
# Test: apparent KD of MS2 coat protein; designed switch direction (-1 OFF switch, 1 ON switch): -1; higher = weaker reporter binding
# How it was run: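 Apparent KD, taken as the median over clusters for each design, was obtained by curve-fitting normalised cluster fluorescence. Designed RNA switches had been transcribed on Illumina chips by stalled E. coli RNA polymerase and titrated with SNAP-549-labelled MS2 coat protein, doubling from 0.7 or 1.5 nM to 3 µM.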
# [1] = input ligand: microRNA oligo, concentration not stated
# [2] = Eterna round: R95, input ligand: microRNA oligo, concentration not stated
Sequence,apparent KD of MS2 coat protein (input ligand: FMN 200 uM) [nM],apparent KD of MS2 coat protein (input ligand: none) [nM],apparent KD of MS2 coat protein [1] [nM],other results
"UUCGUUUUAGGAUAUACAGGGUUGGUCGACAACUCACUGUCACAUGAGGAUCACCCAUGUAGAAGGGAGAGAAG [Eternabot (L1) Solution 49] (Eterna round: R97, puzzle: Exclusion 2)",244,198,,
"UUCUUUAUACGAGGAUAUCAUACAUGAGGAUCACCCAUGUGGCUGGGUCUGUUUUUAUAUAAUAUUGAGAAGGCGUUUUGCUAU [JR_ExcNG2_Sub072] (Eterna round: R96, puzzle: Exclusion NG 2)",223,80.9,70.5,
"UUGAAACAUACCUCCAUAAACAUGAGGAUCACCCAUGUAAGUGAGGAUAUAGAUUGAUUAGUAUACUAGAAGGCACUUAGAUAU [JR_ExcNG3_Sub043] (Eterna round: R96, puzzle: Exclusion NG 3)",10.4,10.5,10.8,
"UUGAACUUAGGAUAUUGGUUCAGCUACAUGAGGAUCACCCAUGUGGUACCUAGCUGAGGUCAAGAAGGGAGUGUUG [EX5 B.12] (Eterna round: R97, puzzle: Exclusion 5)",25.6,20.6,,
"UUGAAGUCAUCAGGAUAUAGUAUUAAAGACAUUUAUAUUUUCAAACAUGAGGAUCACCCAUGUCGCUAGAAGGGAUUAUAGAUU [JR_ExcNG2_Sub080] (Eterna round: R96, puzzle: Exclusion NG 2)",,,36.6,
"UUGAGACAUGAGGAUCACCCAUGUAAGGAUAUAGUCGUCUGGUGGUCUCGGGUGGUGGCUAGAAGGUGCGUGCG [-15.7, 14.3 kcal, A 20%] (Eterna round: R97, puzzle: Exclusion 1)",241,239,,
"UUGAUGUAAGGAUAUCGUGCAAGUUUCAAAAGAGGCUUGUGCGAGAAGGUACAUGAGGAUCACCCAUGUAGGUU [Omei Ex4 B8] (Eterna round: R97, puzzle: Exclusion 4)",113,31.7,,
"UUGAUGUGAGGAUAUAUUUUGUGUUUUCUUUAUGUUUUAUAACUUGAGGAUCACCCAAGUAGAAGGCGCUACGU [JR_Ex2_Sub065] (Eterna round: R97, puzzle: Exclusion 2)",119,60.6,,
UUGAUGUGAGGAUAUGUGAUCUGCCUUCUAUAUAGAUGAUUACAGAAGGCACAUGAGGAUCACCCAUGUAGAUC [Ex4 - 3 - 24] (puzzle: Exclusion 4),,,,apparent KD of MS2 coat protein [2]: 49.2 nM
"UUGCGAAGAGGAUAUUUUGUCAUCAACAUGAGGAUCACCCAUGUCUUCCUUUAUGCUAUAGAAGAAGGCUUCCAGU [Eternabot (L2) Solution 63] (Eterna round: R97, puzzle: Exclusion 5)",59.9,37.1,,
UUGGAGAUAGGAUAUACGAGGAGAGUAGAGGGAAGGUGAUGACAUGAGGAUCACCCAUGUAGAAGGAUCAGGAG [JR_Exclu2_Sub068] (puzzle: Exclusion 2),,,,apparent KD of MS2 coat protein [2]: 112 nM
"UUGGAUAUCUAUGGGAGUAACAUGAGGAUCACCCAUGUAUGUCUUGUUUUUUGUUCGUCAUAGGCCAUUUGAUUGGA [JR_SV3TOV1_Sub025] (puzzle: Sensor v3, turn-off variant 1)",,,,"apparent KD of MS2 coat protein (Eterna round: R95, input ligand: FMN 200 uM): 78.8 nM; apparent KD of MS2 coat protein [2]: 140 nM; apparent KD of MS2 coat protein (Eterna round: R95, input ligand: none): 94.6 nM"
"UUGGUGUCAGGAUAUGCUUAAUGUGUUUUAUUAUAAUAUAUACAUGAGGAUCACCCAUGUAGAAGGGACAUUGU [LRO-Excl2-09-Fireball XL5] (Eterna round: R97, puzzle: Exclusion 2)",48,48.5,,
"UUGGUUGGUGUAGGAUAUGUAUGAGGAUCACCCAUUAAUAAAUUUUAACCACGAGGAUCACCCGUGUAGAAGGACAUUGGUUAU [pwkr exNG2 2xF5 1xFMN.22] (Eterna round: R96, puzzle: Exclusion NG 2)",52,57.4,42.1,
"UUGGUUGUGGUAGGAUAUCCGUUGGAAACCUUCGGAGAAGGACCACAGUCACUGGGUCUUUGUCUGGUGGACGGUGAAAACCGU [pwkr exNG1 F6.22] (Eterna round: R96, puzzle: Exclusion NG 1)",138,730,498,
"UUGGUUGUGGUAGGAUAUCCGUUGGAAACUGUUGGAGAAGGACCACAGUCACUGGGUCUUUGUUUGGUGGAGUGGAAGAACCAU [pwkr exNG1 F6.18] (Eterna round: R96, puzzle: Exclusion NG 1)",166,324,532,
"UUGUAACAUGAGGAUCACCCAUGUGAGGAUAUGGCCCGCCCGGCGUGAGCUGGUUUUGUCAGAAGGCGCAUAGG [salish99_ex1_r4_022] (Eterna round: R97, puzzle: Exclusion 1)",158,49.9,,
"UUGUAACAUGAGGAUCACCCAUGUGAGGAUAUGGUUAAGUAAUGUAAUGUAAAGUAAUCCAGAAGGCACAUGUU [1st #24] (Eterna round: R97, puzzle: Exclusion 1)",488,328,,
UUGUACAUAGGAUAUAGUUGUUUCUACAUGAGGAUCACCCAUGUUAUUCCUCUCUCCCUUCUAGAAGGAUGUUUUU [JR_E5_Sub006] (puzzle: Exclusion 5),,,,apparent KD of MS2 coat protein [2]: 43.6 nM
"UUGUACCGGUGAGGAUAUUUUUAAUAGAGCUUUAUGAUAUACAUGAGGAUCACCCAUGUUACGUUGAAGAAGGCAUCGGAUUAU [JL JR Sub091 mod 5] (Eterna round: R96, puzzle: Exclusion NG 2)",19.3,19.8,15.5,
"UUGUCGCAUGUAGGAUAUGUAUGUUAUUAUCAUACAGAAGGACAUGAGGAUCACCCAUGUGUAUUAUUAUUAUAUGUUACAUAU [MOD of Hoglahoo's a different Title] (Eterna round: R96, puzzle: Exclusion NG 1)",,,14,
"UUGUCGGCAGGAUAUACAUGAGGAUCACCCAUGUAAAUUUUUCGUUUAACUUGAAUGUGUAGAAGGGCCAUGUU [Ex3 #71] (Eterna round: R97, puzzle: Exclusion 3)",35.3,24.5,,
"UUGUGCACGCUGCGAUCCUACAUGAGGAUCACCCAUGUGGUCUGGUGGCGUGGGUCACCGGACUUGGCUCGUCUUGU [salish99_S_TOV1_R5_080] (Eterna round: R97, puzzle: Sensor, turn-off variant 1)",69.6,80.8,,
"UUGUUAUAUGAAGGAUAUACUUAACAUGAGGAUCACCCAUGUGGUGUUGUGAGUGAGUGAGUUUAGUAGAAGGUCAAUUCUUUU [JMF's solution 94] (Eterna round: R96, puzzle: Exclusion NG 2)",735,421,440,
"UUGUUAUAUGUAGGAUAUGCAUAUUAUUAUUAUGCAGAAGGACAUGAGGAUCACCCAUGUAUAUUAUUAUUAUAUGUUAUAUAU [Title] (Eterna round: R96, puzzle: Exclusion NG 1)",,,19.5,
"UUGUUAUAUGUAGGAUAUGCAUAUUGUUGUUAUGCAGAAGGACAUGAGGAUCACCCAUGUAUAUUAUUGUUAUAUAUUGUAUAU [Title] (Eterna round: R96, puzzle: Exclusion NG 1)",,,20.1,
